The values below come from the supplement of paper PMC10567573.

A short description of the data set: protein stability index of a GFP-peptide fusion (GPS, HEK-293T) (PSI 1-6); higher = more stable.
The mark [1] stands for this setting: treatment: DMSO, c terminus: a fixed tail appended.
The mark [2] stands for this setting: treatment: MLN4924 1 uM, 8 h, c terminus: a fixed tail appended.

± gives the standard deviation.
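Further: 24-mer peptide tiles fused after GFP, lentivirally expressed, FACS-sorted into six equal bins by GFP/DsRed ratio, decoded by Illumina sequencing, PSI is the read-weighted mean bin number.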

In turn, SYATEADIISTVEFNHTGELLATG [PPP2R2B] returned a protein stability index under setting [1] of 3.9 ± 0.43 and a protein stability index under setting [2] of 3.94 ± 0.32.
Consider SSTSGGSGYGFRPSMVSGGYVANS [KRT71], for which the protein stability index was found to be 3.29 ± 0.31 under setting [1] and 3.46 ± 0.49 under setting [2].
SILRELDTSMDGTEPPQNPVTPLG [SERTAD3] showed a protein stability index under setting [1] of 4.35 ± 0.13 and a protein stability index under setting [2] of 4.38 ± 0.18.
The like results for HSVTGFLCEPDPVHFSEAIEKFIR [ALG2] were, in that order, 2.8 ± 0.21 and 2.93 ± 0.26.
On to FHYVDILALLPAAWEDSHGSQDGH [SCNN1D], for which the protein stability index came out at 2.26 ± 0.56 under setting [1] and 2.13 ± 0.25 under setting [2].
With LPLAEREHVSRALCIHTGRELRCK [TRIB1], the protein stability index runs as follows: under setting [1], 3.99 ± 0.32; under setting [2], 3.93 ± 0.2.
As to FEYRGEQHKTCMLNATSKFMEFYQ [EDNRA], the protein stability index turned out to be 2.08 ± 0.36 under setting [1] and 1.89 ± 0.32 under setting [2].
For the sequence HVLLEGEGLGQSLGNFKDDLLNVC [TRIM29], the protein stability index by setting is: under setting [1], 3.06 ± 0.041; under setting [2], 3.1 ± 0.17.
As to KADLEVSNRHGHTCLMISCYKGHK [FEM1C], the protein stability index under setting [1] came to 3.03 ± 0.36 and the protein stability index under setting [2] turned out to be 2.91 ± 0.33.
For the sequence LVKNLKDTLGLGKTRRKTSARDAS [NCK2], the protein stability index is 3.19 ± 0.38 under setting [1] and 3.35 ± 0.3 under setting [2].
RPSMASELMPSSRLWSLSYTKLPS [SLC25A39]: the protein stability index runs as follows: under setting [1], 2.99 ± 0.19; under setting [2], 2.92 ± 0.26.
As to GNAHLGYSLVTHIPAGARDIQIVE [ADAMTSL2], the protein stability index is 3.03 ± 0.34 under setting [1] and 3.24 ± 0.13 under setting [2].
For the sequence RILDELTLCKADLEAQVESLKEEL [KRT36], the protein stability index stood at 3.76 ± 0.35 under setting [1] and 3.68 ± 0.54 under setting [2].
The like results for LKLTVVEDVTVGRRQAVAWLVAMH [ZFYVE21] were, in that order, 3.15 ± 0.56 and 2.91 ± 0.57.
The like results for VQLRFCGRQPCGRFLRAYREGALR [TRADD] were, in that order, 2.61 ± 0.53 and 2.29 ± 0.65.
On to PSDLDQFSDSSLIEDSQALHKRPK [LURAP1L], for which the protein stability index was found to be 5.49 ± 0.24 under setting [1] and 5.43 ± 0.11 under setting [2].
The like results for QALLRISLDKVQRSLGPRAPSLRR [SERTAD3] were, in that order, 2.68 ± 0.46 and 2.62 ± 0.36.
The like results for GLHRRPGAGHCSASPGPAAPTARM were, in that order, 3.76 ± 0.31 and 3.64 ± 0.31.
KAQIWDTAGQERYRAITSAYYRGA [RAB11A]: the protein stability index is, setting by setting: under setting [1], 2.88 ± 0.16; under setting [2], 2.98 ± 0.31.
As for LMGEIAKATFMYEQFPELMNMLWS [CLINT1], the protein stability index was found to be 2.61 ± 0.62 under setting [1] and 2.33 ± 0.32 under setting [2].
Regarding YDGMLSDVQSMPKTGILILILSII [MAGEA10], the protein stability index is, setting by setting: under setting [1], 2.36 ± 0.78; under setting [2], 2.12 ± 0.48.
As for TMGMGMPNIAMTSGTVQPKQDAFA [CLINT1], the protein stability index reads like this: under setting [1], 3.9 ± 0.17; under setting [2], 3.98 ± 0.21.
The sequence EKRGCPRTALEYCKLILSLEPDED [TCF25] had a protein stability index under setting [1] of 3.37 ± 0.17 and a protein stability index under setting [2] of 3.42 ± 0.097.
Take LLNTDLHGHNIGKKMSCQQFIANL [PSD2]: the protein stability index reads like this: under setting [1], 2.24 ± 0.29; under setting [2], 2.46 ± 0.13.
The like results for EVHVPPSSAVSGVKEWFGLGGEQA [MIA2] were, in that order, 4.31 ± 0.22 and 4.29 ± 0.44.
As to LREIRMLKQLKHPNLVNLIEVFRR [CDKL4], the protein stability index by setting is: under setting [1], 2.31 ± 0.3; under setting [2], 2.13 ± 0.67.
Take FGEDGIFRHDRLRFRDFVDALEDS [PBXIP1]: the protein stability index runs as follows: under setting [1], 3.29 ± 0.32; under setting [2], 3.58 ± 0.46.
For the sequence ELLVYIVFLVDICLLTYGMTSSSA [PKD2L1], the protein stability index was found to be 3.19 ± 0.45 under setting [1] and 2.93 ± 0.67 under setting [2].
For the sequence SLWERLEFVNGWYILLVTSDVLTI [MCOLN1], the protein stability index reads like this: under setting [1], 3.5 ± 0.68; under setting [2], 3.08 ± 0.45.
Take PTPKCLRLCFFPFVENGHSESSGQ [CFHR2]: the protein stability index is, setting by setting: under setting [1], 2.54 ± 0.093; under setting [2], 2.72 ± 0.24.
Take PLDMFSEEIKFYELGEEAMEKFRE [KCNA1]: the protein stability index reads like this: under setting [1], 4.71 ± 0.31; under setting [2], 4.85 ± 0.12.
For the sequence YRFRMKCHLCVNYIEMQTDPANCD [YJU2B], the protein stability index is 2.3 ± 0.31 under setting [1] and 2.26 ± 0.17 under setting [2].
Turning to LFSDDYGGKNCKKPAEYGYVSLGR [CEBPB], the protein stability index worked out at 3.02 ± 0.31 under setting [1] and 3.2 ± 0.33 under setting [2].
QPAKKPLLWSDPADNKIVSHLLVA [ESRRG]: the protein stability index was 2.36 ± 0.17 under setting [1] and 2.63 ± 0.26 under setting [2].
Regarding AWKHGNIHLSAPCIYSEVMEALDL [PCMTD2], the protein stability index came out at 2.71 ± 0.26 under setting [1] and 2.73 ± 0.27 under setting [2].
Take DFPDILEQQRKLETYLQNHFAEEE [TENT5C]: the protein stability index under setting [1] came out at 4.45 ± 0.27 and the protein stability index under setting [2] is 4.56 ± 0.22.
The like results for NNSNLQRMGSSESTDSGFCLDSPG [CDC25A] were, in that order, 4.43 ± 0.92 and 4.8 ± 0.3.
Consider SYKARLPLRLFLIIANTMAFQNDV [SCD], for which the protein stability index was found to be 2.66 ± 0.53 under setting [1] and 2.5 ± 0.2 under setting [2].
Take LMHIAHIAELLEVFDLRMMVANIL [RHOBTB2]: the protein stability index by setting is: under setting [1], 2.48 ± 0.4; under setting [2], 2.31 ± 0.32.
Regarding KARSYSYPHCTGISQQDPESDSQG [ZC2HC1C], the protein stability index is, setting by setting: under setting [1], 5.28 ± 0.28; under setting [2], 5.25 ± 0.076.
In the case of DDSPRSALAAATAAAAAAASAAAA [SPAG8], the protein stability index by setting is: under setting [1], 4.79 ± 0.39; under setting [2], 4.86 ± 0.42.
The matching figures for GFEESEPLTGFLTTVPDGPTQLRA [TNXB]: 4.44 ± 0.41 and 4.52 ± 0.3.
As to TTADLDRKLSFSHSDHSSEMSLPE [SPATS1], the protein stability index is, setting by setting: under setting [1], 5.08 ± 0.19; under setting [2], 4.82 ± 0.27.
On to HYDLLNLNGTKVAEGHKASFCLED [LOXL2], for which the protein stability index under setting [1] was determined as 4.12 ± 0.5 and the protein stability index under setting [2] came out at 4.26 ± 0.34.
For NDMRDTPLHRAAFTGRKICSQGS [OSBPL1A], the protein stability index was 2.87 ± 0.22 (treatment: DMSO, c terminus: native) and 2.73 ± 0.39 (treatment: MLN4924 1 uM, 8 h, c terminus: native).
